{"source": "the Human Domainome abundance scans (Beltran et al. 2025)", "parents": {"B1": {"name": "Zinc finger homeobox protein 4, residues 2183 to 2238; numbered along this chain, Q86UP3 (parent)", "chain": "SSRTRFTDYQLRVLQDFFDTNAYPKDDEIEQLSTVLNLPTRVIVVWFQNARQKARK"}}, "note": "± gives the uncertainty stated by the source."}
{"variants_of": "B1", "assay": "abundance fitness (aPCA) (normalised: wild type 0, dead -1); higher = more abundant; growth selection in yeast, the domain comes from the species named", "settings": "Homo sapiens"}
{"variant": "SSRTRFTDYQLRVLQDFFDTNAYPKDYEIEQLSTVLNLPTRVIVVWFQNARQKARK", "note": "[D27Y]", "abundance fitness": "-0.171 ± 0.2"}
{"variant": "SSRTRFTDYQLRVLQDFFDTNAYPKDREIEQLSTVLNLPTRVIVVWFQNARQKARK", "note": "[D27R]", "abundance fitness": "-0.038 ± 0.41"}
{"variant": "SSRTRFTDYQLRVLQDFFDTNAYPKDKEIEQLSTVLNLPTRVIVVWFQNARQKARK", "note": "[D27K]", "abundance fitness": "-0.029 ± 0.4"}
{"variant": "SSRTRFTDYQLRVLQDFFDTNAYPKDHEIEQLSTVLNLPTRVIVVWFQNARQKARK", "note": "[D27H]", "abundance fitness": "0.048 ± 0.33"}
{"variant": "SSRTRFTDYQLRVLQDFFDTNAYPKDQEIEQLSTVLNLPTRVIVVWFQNARQKARK", "note": "[D27Q]", "abundance fitness": "0.08 ± 0.28"}
{"variant": "SSRTRFTDYQLRVLQDFFDTNAYPKDMEIEQLSTVLNLPTRVIVVWFQNARQKARK", "note": "[D27M]", "abundance fitness": "-0.012 ± 0.36"}
{"variant": "SSRTRFTDYQLRVLQDFFDTNAYPKDLEIEQLSTVLNLPTRVIVVWFQNARQKARK", "note": "[D27L]", "abundance fitness": "-0.004 ± 0.26"}
{"variant": "SSRTRFTDYQLRVLQDFFDTNAYPKDAEIEQLSTVLNLPTRVIVVWFQNARQKARK", "note": "[D27A]", "abundance fitness": "-0.378 ± 0.37"}
{"variant": "SSRTRFTDYQLRVLQDFFDTNAYPKDVEIEQLSTVLNLPTRVIVVWFQNARQKARK", "note": "[D27V]", "abundance fitness": "-0.375 ± 0.3"}
{"variant": "SSRTRFTDYQLRVLQDFFDTNAYPKDGEIEQLSTVLNLPTRVIVVWFQNARQKARK", "note": "[D27G]", "abundance fitness": "0.162 ± 0.26"}
{"variant": "SSRTRFTDYQLRVLQDFFDTNAYPKDTEIEQLSTVLNLPTRVIVVWFQNARQKARK", "note": "[D27T]", "abundance fitness": "-0.256 ± 0.32"}
{"variant": "SSRTRFTDYQLRVLQDFFDTNAYPKDFEIEQLSTVLNLPTRVIVVWFQNARQKARK", "note": "[D27F]", "abundance fitness": "0.019 ± 0.26"}
{"variant": "SSRTRFTDYQLRVLQDFFDTNAYPKDSEIEQLSTVLNLPTRVIVVWFQNARQKARK", "note": "[D27S]", "abundance fitness": "-0.009 ± 0.22"}
{"variant": "SSRTRFTDYQLRVLQDFFDTNAYPKDDEIWQLSTVLNLPTRVIVVWFQNARQKARK", "note": "[E30W]", "abundance fitness": "-0.366 ± 0.12"}
{"variant": "SSRTRFTDYQLRVLQDFFDTNAYPKDDEIIQLSTVLNLPTRVIVVWFQNARQKARK", "note": "[E30I]", "abundance fitness": "-0.221 ± 0.19"}
{"variant": "SSRTRFTDYQLRVLQDFFDTNAYPKDDEITQLSTVLNLPTRVIVVWFQNARQKARK", "note": "[E30T]", "abundance fitness": "-0.046 ± 0.12"}
{"variant": "SSRTRFTDYQLRVLQDFFDTNAYPKDDEIFQLSTVLNLPTRVIVVWFQNARQKARK", "note": "[E30F]", "abundance fitness": "-0.132 ± 0.15"}
{"variant": "SSRTRFTDYQLRVLQDFFDTNAYPKDDEIDQLSTVLNLPTRVIVVWFQNARQKARK", "note": "[E30D]", "abundance fitness": "0.08 ± 0.12"}
{"variant": "SSRTRFTDYQLRVLQDFFDTNAYPKDDEINQLSTVLNLPTRVIVVWFQNARQKARK", "note": "[E30N]", "abundance fitness": "-0.166 ± 0.15"}
{"variant": "SSRTRFTDYQLRVLQDFFDTNAYPKDDEIMQLSTVLNLPTRVIVVWFQNARQKARK", "note": "[E30M]", "abundance fitness": "0.201 ± 0.1"}
{"variant": "SSRTRFTDYQLRVLQDFFDTNAYPKDDEICQLSTVLNLPTRVIVVWFQNARQKARK", "note": "[E30C]", "abundance fitness": "-0.18 ± 0.13"}
{"variant": "SSRTRFTDYQLRVLQDFFDTNAYPKDDEIYQLSTVLNLPTRVIVVWFQNARQKARK", "note": "[E30Y]", "abundance fitness": "-0.366 ± 0.2"}
{"variant": "SSRTRFTDYQLRVLQDFFDTNAYPKDDEIKQLSTVLNLPTRVIVVWFQNARQKARK", "note": "[E30K]", "abundance fitness": "-0.154 ± 0.15"}
{"variant": "SSRTRFTDYQLRVLQDFFDTNAYPKDDEIRQLSTVLNLPTRVIVVWFQNARQKARK", "note": "[E30R]", "abundance fitness": "0.031 ± 0.079"}
{"variant": "SSRTRFTDYQLRVLQDFFDTNAYPKDDEIVQLSTVLNLPTRVIVVWFQNARQKARK", "note": "[E30V]", "abundance fitness": "-0.119 ± 0.079"}
{"variant": "SSRTRFTDYQLRVLQDFFDTNAYPKDDEIQQLSTVLNLPTRVIVVWFQNARQKARK", "note": "[E30Q]", "abundance fitness": "0.175 ± 0.14"}
{"variant": "SSRTRFTDYQLRVLQDFFDTNAYPKDDEIGQLSTVLNLPTRVIVVWFQNARQKARK", "note": "[E30G]", "abundance fitness": "0.059 ± 0.075"}
{"variant": "SSRTRFTDYQLRVLQDFFDTNAYPKDDEIPQLSTVLNLPTRVIVVWFQNARQKARK", "note": "[E30P]", "abundance fitness": "-0.463 ± 0.12"}
{"variant": "SSRTRFTDYQLRVLQDFFDTNAYPKDDEILQLSTVLNLPTRVIVVWFQNARQKARK", "note": "[E30L]", "abundance fitness": "-0.057 ± 0.098"}
{"variant": "SSRTRFTDYQLRVLQDFFDTNAYPKDDEIHQLSTVLNLPTRVIVVWFQNARQKARK", "note": "[E30H]", "abundance fitness": "0.008 ± 0.14"}
{"variant": "SSRTRFTDYQLRVLQDFFDTNAYPKDDVIEQLSTVLNLPTRVIVVWFQNARQKARK", "note": "[E28V]", "abundance fitness": "-0.34 ± 0.082"}
{"variant": "SSRTRFTDYQLRVLQDFFDTNAYPKDDKIEQLSTVLNLPTRVIVVWFQNARQKARK", "note": "[E28K]", "abundance fitness": "-0.011 ± 0.16"}
{"variant": "SSRTRFTDYQLRVLQDFFDTNAYPKDDAIEQLSTVLNLPTRVIVVWFQNARQKARK", "note": "[E28A]", "abundance fitness": "-0.036 ± 0.094"}
{"variant": "SSRTRFTDYQLRVLQDFFDTNAYPKDDCIEQLSTVLNLPTRVIVVWFQNARQKARK", "note": "[E28C]", "abundance fitness": "-0.18 ± 0.11"}
{"variant": "SSRTRFTDYQLRVLQDFFDTNAYPKDDIIEQLSTVLNLPTRVIVVWFQNARQKARK", "note": "[E28I]", "abundance fitness": "-0.741 ± 0.23"}
{"variant": "SSRTRFTDYQLRVLQDFFDTNAYPKDDTIEQLSTVLNLPTRVIVVWFQNARQKARK", "note": "[E28T]", "abundance fitness": "-0.069 ± 0.13"}
{"variant": "SSRTRFTDYQLRVLQDFFDTNAYPKDDQIEQLSTVLNLPTRVIVVWFQNARQKARK", "note": "[E28Q]", "abundance fitness": "0.061 ± 0.15"}
{"variant": "SSRTRFTDYQLRVLQDFFDTNAYPKDDGIEQLSTVLNLPTRVIVVWFQNARQKARK", "note": "[E28G]", "abundance fitness": "-0.207 ± 0.076"}
{"variant": "SSRTRFTDYQLRVLQDFFDTNAYPKDDWIEQLSTVLNLPTRVIVVWFQNARQKARK", "note": "[E28W]", "abundance fitness": "-0.596 ± 0.11"}
{"variant": "SSRTRFTDYQLRVLQDFFDTNAYPKDDNIEQLSTVLNLPTRVIVVWFQNARQKARK", "note": "[E28N]", "abundance fitness": "-0.287 ± 0.14"}
{"variant": "SSRTRFTDYQLRVLQDFFDTNAYPKDDMIEQLSTVLNLPTRVIVVWFQNARQKARK", "note": "[E28M]", "abundance fitness": "-0.507 ± 0.17"}
{"variant": "SSRTRFTDYQLRVLQDFFDTNAYPKDDHIEQLSTVLNLPTRVIVVWFQNARQKARK", "note": "[E28H]", "abundance fitness": "-0.188 ± 0.16"}
{"variant": "SSRTRFTDYQLRVLQDFFDTNAYPKDDFIEQLSTVLNLPTRVIVVWFQNARQKARK", "note": "[E28F]", "abundance fitness": "-0.448 ± 0.15"}
{"variant": "SSRTRFTDYQLRVLQDFFDTNAYPKDDRIEQLSTVLNLPTRVIVVWFQNARQKARK", "note": "[E28R]", "abundance fitness": "-0.25 ± 0.075"}
{"variant": "SSRTRFTDYQLRVLQDFFDTNAYPKDDYIEQLSTVLNLPTRVIVVWFQNARQKARK", "note": "[E28Y]", "abundance fitness": "-0.341 ± 0.14"}
{"variant": "SSRTRFTDYQLRVLQDFFDTNAYPKDDDIEQLSTVLNLPTRVIVVWFQNARQKARK", "note": "[E28D]", "abundance fitness": "0.031 ± 0.14"}
{"variant": "SSRTRFTDYQLRVLQDFFDTNAYPKDDSIEQLSTVLNLPTRVIVVWFQNARQKARK", "note": "[E28S]", "abundance fitness": "-0.18 ± 0.094"}
